Results from a protein production outcome set (Wang et al. 2014).

experiment: label from the status in PepcDB records

| Sequence | protein production |
| --- | --- |
| MDGATLAEVMRQRGINMRYLGKVLDLVLRSPARDQLDHIYKIGIGELITRSAKHIFKTYLQGVELSGLSAAISHFLNCFLSSYPNPVAHLPADELLSKKRNKRRKNRPPGAADNTAWAVMTPQELWKNICHEAKNYFDFTLECDSVDQAVETYGLQKITLLREISLKTGIQILLKEYSFDSRHKPAFTEEDVLNIFPVVKHVNPKASDAFHFFQSGQAKVQQGFLKEGCELINEALNLFNNVYGAMHVEICACLRLLARLHYIMGDYAEALSNQQKAVLMSERVMGIEHPNTIQEYMHLALYCFASSQLSTALSLLYRARYLMLLVFGEDHPEMALLDNNIGLVLHGVMEYDLSLRFLENALAVTTKYHGPKALKVALSHHLVARVYESKAEFRSALQHEKEGYTIYKTQLGEDHEKTKESSEYLKCLTQQAVALQRTMNEIYRNGSSANIPPLKFTAPSMTSVLEQLNVINGILFIPLSQKDLENLKAEVARRHQLQEANRNRDKAEEQPMAPEPEPEPEPERAVEDMGSPQTAKEGPSSLNLQG | failed |
| MDGLHVSIVSVALFIILFVIFVFLGFYGSRWRRGDLSKLHEWALAGRRLGPYLMWFLLTADLYTAYTFIAVPSLVLASGPVGFFAAFYSAVTPFIALLFMPRLWTIAKNRGYVTAADFIKDRFNSRILAGLVAITGVVAELPYIALQIVGMQVALLILLLGLGVSNITLASDLSLLVAFIILAAFVFTSGLRGAALTAVYKDIIILGTIISIAIYVPLAFGGFSGAFHNAQTLSSQINLALNNVNKPIFYNYLPNTLAARTAYISLAIGSAFALYLYPHAVNASVSSDSKKSLKLSLALQPFYSIILAVIALFGILVYANSKVVNFIAKTHSGAVAVPALIGYSMPDWFVGIALLGIFIGGLVPAAIMAIGAANLLTRNIIKEFKPNMSPSTESALAKWISTAFKFLALALVFATPSTYAIQLQLLGGIIILQTLPSVFLGLYTSKLNGYALVGGWAGGMFSGIYLTLLANHFGPLKTSSFITPLGPMYIGVLSTLINLAIGLIGTAIAYGAGWRPVSNIRAEEIA | failed |
| MDGLIPMALKAVKKNLTRRRYERLSYSATTRESYDFASDIEMNVDGRHHRRGWSVGDFSSLSSRETKRNGGVAPEKSLTPPREGQLVRFKSHRLFSCISGQ | failed |
| MDGVYVLSVKEDVPAAGILHAGDLITEIDGQSFKSSQEFIDYIHSKKVGDTVKIKYKHGNKNEEASIKLTAIDKKGTPGIGITLVDDLEHHHHHH | failed |
| MDHPFNQMRLKLTTELLLDLGSLKPEHIITPRIATDEELSLIHSYDYIQAIRRASHGILNLQEAKKYGLDGDDTLQFRRMHQHSARIVGGALNLADAIMDKSVKNGCHLGGGLHHSLPGRANGFCIYNDVAITIAYLIKHYNQRVLCIDTDAHHGDGTQWSFYTEDQALIYSIHETGKFLFPGSGHYTERGNEQGFGYTVNIPLEPYTEDSSYLEVFKQTIEPIIASFKPDIIVSVHGVDVHYLDPLTHMSCTLNTLYQIPYIIKSLADTYTNGKVMMFGGGGYNIWKVVPRAWSHVFLALEHHHHHH | not failed |
| MDHQLQQLLDLGLEAKCLLVGINGHWGRAPWWSRPQRGRWPGGCGHLPIFQGGPERICRVLLSARGRAAAAMAAVSWPAIRLALSHVANCATAVLPPLAIDRCQAMSRPQRPARRGAEGQVRIVGGRWRNTRLAVPSLTGLRPSSDRVRETLFNWLMPRLPGARVLDLFAGSGALGLEAVSRGAGHATLIERDSSLVQRLRAHVTRLDAATQVQVLQEDAVRWLERAPAALADIVFVDPPFAACLWPAVLERLPAHVAADAWLYLEAPADAPLLPAGWHLHREGATREVRYALYRRAAATLASDPTPVVSV | failed |
| MDHRASRTGLFILGLCFVLSLLGRGLGESFTVFLLPISGSFGWDRAEVVSIYSLTALCTGLASPLVGRLFDRSGPRVVYTLGMTLLGGALLIAAYAERLWQLQLTVGLCVGLGIAFTGNVPNSILLGRWFGARLPTAMAVVYSAIGAGVLVMLPIAQLLIDRYGWREAYLILGGAMLILLVPLSLMPWRRFAAGADAHAQRPAQDADEDGWTLGSAMRHHAFWALFATFFFTAIGMYSISAQVVAYLVDAGFTPLQAATAWGFSGVVLVVGMLGVSWLDGVIGRRPSILFSYAISITGLVLLWLLQWYPNLLLLGGFVICFGSMIGSRGPLITATAMSIFRGRRVGTIYGTISIGSGLGSAFGSWCGGLLHDLTQSYNPVLGFALVSVVLGMIPFLVVPALRERQ | failed |
| MDIEERINLVLKKPTEEVLTVENLRHLFEIGAPLQHYIGFEISGYIHLGTGLMAGAKIADFQKAGIKTRVFLADWHSWINDKLGGDLEVIQEVALKYFKVGMEKSIEVMGGDPKKVEFVLASEILEKGDYWQTVIDISKNVTLSRVMRSITIMGRQMGEAIDFAKLIYPMMQVADIFYQGVTIAHAGMDQRKAHVIAIEVAQKLRYHPIVHEGEKLKPVAVHHHLLLGLQEPPKWPIESEEEFKEIKAQMKMSKSKPYSAVFIHDSPEEIRQKLRKAFCPAREVRYNPVLDWVEYIIFREEPTEFTVHRPAKFGGDVTYTTFEELKRDFAEGKLHPLDLKNAVAEYLINLLEPIRRYFEKHPEPLELMRSVKITR | not failed |
| MDIFQLQGLFLVLSAILGYFLHNRLSVRIVSFVNNWINLPLIFLVTYLQRGFEVSDAKIFLTSVIYNFLMFVIVLYLTREIEPFSRGSVLINSIFMNTINLPFSILLAFRGNYEISATVAVAMATLRLPIVMIIFTYLNKGISVIHNTTNNSIIRTNLSRYLPVITFLIGGSLHYVVGSVINVDIVNTINLILILIVLYEFGYQIRRVIGEMRIKDVTSKPYMIIYISRILISPILIFLILISLGITSKIIIEQVMVTAIMAPAITNVVWARVYGFGTEIIVKSTLILTPISTIIAIIFLILY | failed |
| MDIIRKISHFAGQTFGIWVIVFAVLGFSFPSLFTWISSYITIFLGIIMFGMGLTLQADDFKELVRKPWQVIIGVIAQYTIMPLVAFGLAFGLHLPAEIAVGVILVGCCPGGTASNVMTFLAKGNTALSVAVTTISTLLAPVVTPLLIMLFAKEWLPVSPGSLFISILQAVLFPIIAGLIVKMFFRKQVAKAVHALPLVSVIGIVAIVSAVVSGNRENLLQSGLLIFSVVILHNGIGYLLGFLCAKLLKMDYPSQKAIAIEVGMQNSGLGAALATAHFSPLSAVPSAIFSVWHNLSGSMLATYWSKKVKKKQAGSKSSNLSL | failed |
| MDIKNGLFIIGVIPTILFAVLTFIFWWKIRKLKDLRTLRLGRLSFFALLFLWITINGIIGSGLVLTELHQNVLLLLLIAEAVVMFLIIPMIIGIIVPISIVVLTIKMWRRESKSIGNLLLAIVVLTFLVVDWIHLSMGRLPDSWIWLKILGMVYPILSIYLAWQFGIFFLSSWVYGRRVRKQRANYYVVLGAGLIQGEHVGKLLGNRILAAVKAVRDNETILVFSGGQGPDEKVSEARAMQRYAVEVLGFPIERTMLEDQSRTTYENLFFSSQLIREKFLFFTSDYHVFRAALFAAMLKLEAQGGKGGKTAMYYRVPAFIREFIAVLNYEKKKHMIRVGIIVAIFLSIAIVSQIGYFWNQR | failed |
| MDIKYKFPFALIIASAALVGCTSNQVKKEEAKPNPLPKLAQTQTQALVPIFSQSVSSMPKADPLRLQLDTLNGVIFVPDPKGKVSAYRGKERLWTTRVTKHRLTAGTVAGEGIVVVGNIKGELIALDQQTGQQKWKAQLTGAVLSPSLIYQGRVTTIANDGTVFAHDAETGQQVWTYKMPTIQFSLRGQPSPVMLDDRTVVVASANGYVYGIDVISGVPRFQRRVAVSEGRSDIQRLIDIDGDPVVSGQYLVTVSYQGQVTVTDLTNLSVVWNQDASSNKRPAVYDNKVFVAQADGKLTAYDLGTGSKLWESDVLLNRQLSNPVMLGKDLVVGDLDGVIHLINPDSGQLIGRAKTRGEVSSLRVVDGHLYTSTRKGALTIWEVR | failed |
| MDILKTLQKHLGDVETSDFTTNAIEKSQQIAKFSRDMKNINESVGALQVLQIACKKLFNKSMGLEDKDALQASIIKQELREIVENCQFLASPLFDTQLNIAINDEIFSMIVVNPLDLLENVGEFQAYLEEKLNEIKELLGYLSESLSNPKAFMPSFSNQSLKDLLSDNLRA | failed |
| MDISVIDATKVNTETGLHIGESNAPVKMIEFINVRCPYCRKWFEESEELLAQSVKSGKVERIIKLFDKEKESLQRGNVMHHYIDYSAPEQALSALHKMFATQDEWGNLTLEEVATYAEKNLGLKEQKDATLVSAVIAEANAAHIQFVPTIIIGEYIFDESVTEEELRGYIEK | not failed |
